In the nanobody polyreactivity screen of Harvey et al. (2022):

Experiment: yeast display, Sf9 membrane polyspecificity reagent, FACS + sequencing; frameworks hold sequencing errors
Procedure, shortened: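 Nanobodies from a synthetic yeast display library (Saccharomyces cerevisiae BJ5465), induced 36–48 hours with galactose, were stained 1 hour at 4 °C with 10% biotinylated, detergent-solubilized Sf9 membrane reagent, enriched on streptavidin microbeads, then FACS-sorted. Anti-HA (expression) and streptavidin (reagent binding) fluorescence set low and high (top ~1%) gates. Polyreactivity labels come from the gate of origin. Genes were colony-PCR amplified, MiSeq 2 × 250 sequenced and filtered by CDR length.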

Sequence	polyreactivity (PSR sort gate)
QVQLVETGGGLVQAGGSLRLSCAASGLILGGYAMGWYRQAHGKERELVAAITRGGGSTFYADSVKGRFTISRDNAKNTVYLQMNSLKPEDTAVYYCAKRYPYRPPGPRYRGLSGYVYWGQGTQVTVSS	high polyreactivity
QVQLVESGGGLVLEGGSLRLSCPASGRIFTWNAMGWYRHAPGKERELVASISRSGTSTYYADSVKGRFTISRDNAKNTVYLQMNSLKPEDTAVYYCAAKRYGYKMYYWGQGTQVTVSS	high polyreactivity
QVQLVESGGGLVQAGGSLRLSCAASGSIFKYYTMGWYRQAPGKERELVASINGGGSTNYADSVKGRFTISRDNAKNTVYLQMNSLKPEDTAVYYCNARYWWQDGYWGQGTQVTVSS	high polyreactivity
QVQLVESGGGLVQAGGSLRLSCAASGSTFYPYAMGWYRQAPGKERELVAAITYSGGSTYYADSVKGRFTISRDNAKNTVYLQMNSLKPDDTAVYYCATPYFSTPRVRGFDYWGQGTQVTVSS	low polyreactivity
QVQLVESGGGLVQAGGSLRLSCAASGGTFAYYTMGWYRQAPGKERELVAAISSGGRTNYADSVKGRFTISRDNAKNTVYLQMNSLKPEDTAVYYCAAESPLVYYSYPAYYKYYEYEYWGQGTQVTVSS	low polyreactivity
QVQLVESGGGLVQAGGSLRLSCAASGYTFDAYAMGWYRQAPGKERELVAAITTNGGSTYYADSVKGRFTISRDNAKNTVYLQMNSLKPEDTAVYYCNAEYWYEGRYPYDYWGQGTQVTVSS	low polyreactivity
QVQLVESGGRLVQAGGSHRLSCAASGRTFFHYAMGWYRQSPGKERELVAAITYRGTSTYYADSVKGRFTISRDNAKYTVYIQMNSLKPEDTAVYYCNAYSTRGGWSYRGDSWGQGTQVTVSS	high polyreactivity
QVQLVESGGGLVQAGGSLRLSCAASGSIFFPYAMGWSRQAPGKERELVAAITYGGGSTYYADSVKGRFTISRDNAKNTVYLQMNSLIPEDTAVYYCAAAVSYWRHGYQLSYDYWGQGTQVTVSS	high polyreactivity
QVQLVESGGGLVQAGGSLRLSCAASGFTIRSYVMGWYRQAPGKERELVAAIRRSGGSTYYADSVKGRFTISRDNAKNTVYVQLNSLKPEDTAFYYCNAPHHRYDWGQGTQVTVSS	high polyreactivity
QVQLVESGGGLVQAGGSLRLSCAASGRIFYFYAMGWYRQAPGKERELVAAISTSGGSTYYADSVKGRFTISRDNAKITVYLQMNSLKPEDTAVYYCAARFRYYGSEYDYWGQGTQVTVSS	low polyreactivity
QVQLVESGGGLVQAGGSLRLSCAASGSIFKVNAMGWYRQAPGKEWELVARTYYADSVKGRFTISRDNAKNTVYLQMNSLKPEDTAVYYCAASRGIYNPYDYWGQGTQVTVSS	low polyreactivity
QVQLVESGGGLVQAGGSLRLSCAASGFTFRIYAMGWYRQAPGKERELVATISWSGTSTYYADSVKGRFTISRDYAKNTVFFQMNSLNPEDTAVYYCAKDGVSFYWLNKYYYWGQGTQVTVSS	low polyreactivity
QVKLVESGGGLDQAGGSLRLSCAASGSTILQTAMGGYRQAPGKARELVASISRGGSTNYADSVKGRFTISRDNAKTSVYLQMNSLKPEDTEVYFCATRSRRSASPVVYHAYYYWGQGTHVTVSS	high polyreactivity
QVQLVESGGGLVQAGGSLRLSCAASGRIFNSYAMGWYIQAPGKERELVAAISSGGSTYYADSVKGRFTISRDNAKNTVYLQMNSLKPEDTAVYYCAARIWTGRGRKLGYGYDYWGQGTQVTVSS	low polyreactivity
QVQLVESGGGLVQAGGRLRLICAASGRIFYSYAMGWYRQAPGKERELVAAISFSVGSTYYADSVKGRFTISRDNAKNTVYLQMNSLKPEDTAVYYCAASLGFPGYEYWGQGTQVTVSS	low polyreactivity
QVQLVESGGGLVQAGGSLRLSCAASGRTFIGNAMGWYRQAPGKERELVATITSSAGTTYYADSVKGRFTISRDNAKNTVYLQMNSLKPEDTAVYYCAKRIWRSYPYRAYYSEFGYWGQGTQVTVSS	high polyreactivity
KVQLVESCGGLVQAGGSLRLSCAASGFIISNYAMGWYRQAPGKERELVASISWGGGSTYYADSVKGSFTISRDNAKNTVYLQMNSLKPEDTAVYYCAAPSWDGIAYYGGYDYLGQGTQVTVSS	high polyreactivity
QVQLVVSGGRLVQGAGSHRLSSAASGSIFPKYAMGWYRQAPGKERDLVATISYRGGRTYYADSVKGRFTISRDNAKNTVNLQMNCLKPEDTAVYYCNAHSQAKLDYWGQGSQVTVSS	low polyreactivity
QVQLVESGGGLVQAGCSLRISCAASGSTFYPYAMGWYRQAPGKERELVAAISSGGSTYYADSVKGRFTISRDNAKNTVYLQMNSVKPEDTAVYYCAADFYYAYYWGQGTQVTVSS	low polyreactivity
QVQLVESGGGLVQAGGSLRLSCAASGITFAYYGMGWYRQAPGKERELVAAISWTGSSTYYADSVKGRFTISRDNAQNTVYLQMNSLKPEDTAVYYCAARQRYRYDYWGQGTQVTVSS	high polyreactivity
QVQLVESGGGLVQAGGSLRLSCSSSGLTLYRYAMGWYRQAPGKERELVAGISWGGGSTYYADSVKGRFTISRDNAKNTVFLQMNSLKPEGNAVYYCAAGRLLYIPRYYYWGQGTQVTVSS	high polyreactivity
QVQLVESGGGLVLAGGSLRLSCAASGRIFYQNAMGWYRQAPGKERELVAGITRGGSTYYADSVKGRFTISRDNAKNTVYLQMNSLKPEETAVYYCAVAFWRTKWYDYWGQGTQVTVSS	low polyreactivity

Sequence	polyreactivity (PSR sort gate)
QVQLVESGGGLVQAGGRLRISCAASGRIFTYNTLGWSRQEPGKERELVAAIRTGGSTNYADSVKGRFTISRDNAKITVNLQMNSLKPEDTAVSYCNTVRHSTSDYWYDFWGQGTQVTLSS	low polyreactivity
QVQLVESGGGLVQAGGSLRLSCAASGSTFPVYAMGWYRQAPGKERELVASISSGADTNYADSVKGRFTISRDNAKNTVYLQMNSLKPEDTAVYYCAATVPLRTIRPRSYGYWGQGTQVTVSS	low polyreactivity
QVQIVESGGGLVQAGRSLRLSCAASGSTFEFYAMGWYRQAPGKEREFVAGITSSGVTTYYADSVKGRFTISRDNAKYTVYLQMNSLKPVDTAVYYCAATDVVYSWFFLVYIPYDYWGQGTQVTVSS	low polyreactivity
QVQLVESGGGLVQAGGSLRLSCAASGSTFTGYAMGWYRQAPGKERELVAAISRSGGSTSYADSVKGRFTISRDNAKNTVYLQMNSLKPEDTAVDYCAAQVQGTTRAKQRGGIGELDYWGQGTQVTVSS	low polyreactivity
QVQLVESGGGLVQAGGSLRLSCAASGRTFRVNAMGWYRQAPGKERELVAAITWNGGSTYYADSVKGRFTISRDNAKNTVYLQMNSLKPEDTAVYYCAAKGARYTSRGYYWGQGTQVTVSS	high polyreactivity
QVQLVESGGCLFQAGASLRLSCAASGRILAYYAMGWYRQAPGKERELVAAITSGGRTYYADSVKGRFTISRDNAKNTVYLQMNSLKPEDTAVYYCNRVTGYDSGDGYWGQGTQVTVSS	high polyreactivity
QVQLVESGGGLVQAGGSLRLSCAASGFTFFYYVMGWYRQAPGKERDLVAAITRGGSTYYADSVKGRFTISRDNAKNTVDLQMNSLKPEDTAVYYCNKVLRVYLGRFEYYSWGQGTQVTVSS	high polyreactivity
QVQLVESGGGLVQAGGSLRLRCAASGSTFHIYAMGWYRQAPGKERELVAAISKGGGNTYYADSVKGRFTISRDNAKNPVYLQLNSLKPEDTAGYYCAAVPTRYRSYSYTYGGYNYWGQGTQVTVSS	high polyreactivity
QVQLVETEVGLDQAGGSLPLSCAASGYTFWAYAMGWYRQSPGKERELVAGISSRGSRTYYADSVKGRFTISRDNAKNTVYLQMNSLKPEDTAVYYCNALRTPPGYYPPFDYWGQGTQVTVSS	high polyreactivity
QVQLVESGGGLVQAGGSLRLSCAASGRTFYYYTMGWYRQAPGKDRELVAAIRGSGGSTYYADSVKGRFTISRDNAKNTVYLQMNSLKPEVTAVYYCNATRRRSARYGYISAYDYWGQGTQVTVSS	high polyreactivity
QDQLVESGGGLVQAGGSLRLSCAASGFTFRSNAMGWYRQAPGKERELVAAISRTGGSTYYADSVKGRFTISRDNAKNTVYLQMNSLKPEETAVYYCNTVYGKSHYGQAMDSWGQGTQVTVSS	high polyreactivity
QVQLVESGGGLVQAGGSLRLSCAASGSIFYWYAMGWYRQAPGKERELVAAISGSGGTTYYADSVKGRFTISRDNAKNTVYLQMNSLKPEDTAVYYCATRGWYLGSRGYRTRYGYWGQGTQVTVSS	high polyreactivity
QVQLVESGGGLVQAGGSLRLSCAASGIIFKRYAMGWYRQAPGKDRELVAAISSRAGRTYYADSVKGRFTISRDNAKNNVYLQLNSLKPEDTAVYYCNTGLVYGYDYWGQGTQVTVSS	high polyreactivity
QVQLVESGGGLVQAGGSLRLSCAASGFTFEWYTMRCYRQAPGKERELVADISGDGSTYYADSVKGRFTISRDNAKNTVYLQMNSLKPEDTAVYYCAARTRRYHRPGLSPGNYWGQGTQVTVSS	high polyreactivity
QVQLVESGGGLVQAGGSLRLSCAASGITFYSYAMGSYRQAPGKERELVAAISWRGGSTRYADSVKGRFTISRDNAKNTVYLQMNSLKPEDTAVYYCAARLRTKLPIPSTVGYWGQGTQVTVSS	high polyreactivity
QVQLVESGGGLVQAGGSLRLSCASSGSTIVHYAMGWYRQAPGKERELVAGITDTDNHELRRLCEGRFTISRDNAKNTVYLQMNSLKPEDTAVYFCNADDTYYQLGGITGYDYWGQCTQVTVSS	low polyreactivity
QVQHVESGGGLVQAGGSLRLSCAASGFIFTPYAMGWYRQAPGKEREFVASITWSGGSTNYADSVKGRFTISRDNAKNTVYLQMNSLKPEDTAVYYCNADTWSPNDYWGLGTQVTVSS	low polyreactivity
QVQLVESGGGLVQAGGSLRLSCAASGRIFGPYAMGWYRQAPGKDRELVASISYSGGSTYYADSVKGRFTISRDKAKNTVYLQMNSLKPEDTAVYYCDKAGYWRGYNYWGQGTQVTVSS	low polyreactivity
QVQLVESGGGLVQAGGSLRLSCAASGRILPYNVMGWFRQARGKEREFVAAITGSGGDTYYADSVKGRFTISRDNAKNTVYLQMNSLKPEDTAVYYCAAAPYIGGSFGQTPGSGYWGQGTQVTVSS	low polyreactivity
QVQLVESGGGLVQAGGSLRLSCAASGRTFRGYAMGWSRQAHGKEREFVATISSRGGSTYYADSVKGSFTISRDNAKHTVYLQMNSLKPEDTAVYYCAAKRRAKTGYRYDYWGQGTQVTLSS	high polyreactivity
QVQLVESGGGLVQAGGSLRLSCAASGRTFYYYAMGWYRQAPGKEREYVASITWRGGRTYYADSVKGRFTISRDNAKNTVYLQMNSLKPEDTAVYYCAADGSYAIGGYGYWGQGTQVTVSS	high polyreactivity
